This is an account of results in publication PMC4940161, “Time-resolved studies define the nature of toxic IAPP intermediates, providing insight for anti-amyloidosis therapeutics” (eLife, 2016).

Read-outs that look alike come from different tables or passages of the source. Positions of bridges follow the written chain, without caps; N, C: chain ends. No end group written: not given here. Some results are limits rather than exact numbers.

The subject of data set [1] is rat INS-1 β-cells. The experiment in a line: Alamar Blue reduction β-cell viability assay. It is filed as cell-based. As to conditions: for Toxicity to β-cells over the time course of aggregation: 20 μM peptide solutions, 14 μM final on cells, aliquots at different time points. On the procedure: Rat INS-1 β-cells (832/13) were generously provided by Professor Newgard (Duke University). β-cells were grown in RPMI 1640 supplemented with 10% fetal bovine serum (FBS), 11 mM glucose, 10 mM Hepes, 2 mM L-glutamine, 1 mM sodium pyruvate, 50 µM β-mercaptoethanol, 100 U/ml penicillin, and 100 U/ml streptomycin.
(§1) Synthetic amyloidogenic and non-amyloidogenic IAPP peptides were dissolved in 1,1,1,3,3,3-Hexafluoro-2-propanol (HFIP) for 5–12 h, aliquoted and lyophilized to a dry powder. Amyloid formation was initiated by dissolving dry HFIP-treated peptides in 20 mM Tris HCl buffer (time-zero) at pH 7.4. Samples were incubated at 25°C, unless indicated otherwise. Aliquots were removed from the peptide solutions at designated time points over the course of amyloid formation or aggregation as schematically depicted in Figure 2A. The kinetic species populated within each of the three phases of amyloid formation were concurrently characterized by biophysical methods and biological assays assessing changes in metabolism, oxidative stress, inflammation and apoptosis using INS-1 β-cells and murine pancreatic islets.
Rat INS-1 β-cells were seeded at a density of 30,000 cells per well in 96-well plates 12–16 h prior to start of experiments. Hand purified islets were seeded at a density of 25–30 islets per well in 96-well plates. Amyloid formation and aggregation assays were initiated by dissolving IAPP peptides (15 μM to 80 μM stock solutions for dose-response experiments) in 20 mM Tris HCl (pH 7.4), unless stated otherwise. Peptide solutions were incubated at 25°C, or as indicated. Aliquots were removed from amyloid formation and aggregation assays at different time points and applied exogenously to rat INS-1 β-cells (5 h incubation) or murine pancreatic islets (10 h incubation). β-cells and islets were photographed by light microscopy immediately before and after toxicity experiments to assess changes in morphology. The final range of peptide concentrations examined in β-cell and islet toxicity assays after diluting IAPP peptide solutions into cell or islet culture was 10.5 μM to 56 μM in dose-response studies, unless indicated otherwise. Cell viability was measured by Alamar Blue reduction assays, which detect changes in metabolic function, and by morphological changes detected by light microscopy. Alamar Blue was diluted ten-fold in culture medium and incubated on β-cells or islets for 5 h at 37°C. Fluorescence (530 nm excitation and 590 nm emission) was measured with a Beckman Coulter DTX880 plate reader. Values were calculated relative to control β-cells or islets treated with buffer alone. Toxicity was defined as <80% viability. Light microscopy images were captured using an Olympus BX-61 light microscope.
(In general: Alamar Blue is a resazurin reagent that responds to reducing activity.)

A short description of data set [2]: Amyloid formation kinetics (thioflavin-T binding, TEM). To be noted: 20 mM Tris HCl pH 7.4, 25°C; for Amyloid formation: thioflavin-T binding and TEM, 20 µM peptide (3xL-IAPP 40 µM), I26P-IAPP over 35+ h. The format is physicochemical. On the procedure: as §1
Aliquots (100 μL) were removed from amyloid formation and aggregation assays at different time points, and added to 96-well plates containing 8 μL of a 1 mM thioflavin-T solution. Fluorescence was measured using a Beckman Coulter DTX880 plate reader (445 nm excitation and 485 nm emission). Final solution conditions contained […] and 74 µM thioflavin-T (pH 7.4).
Aliquots (4 µL) were removed from amyloid formation or aggregation assays at different time points and placed on a carbon-coated 200-mesh copper grid and negatively stained with saturated uranyl acetate. The samples were imaged with a Philips CM12 or a FEI BioTwinG2 transmission electron microscope.

Data set [3] is described as follows: Photochemical induced cross-linking / SDS-PAGE oligomer distribution. To be noted: 20 µM peptide, 20 mM Tris HCl pH 7.4, 25°C, at time points of h-IAPP toxicity, supernatant after 20,000 g 20 min, Tris(bipyridyl)Ru(II) cross-linking, silver stain. It is filed as physicochemical. On the procedure:
Samples were cross-linked using Tris(bipyridyl)Ru(II), in the presence of ammonium persulfate. IAPP peptides were incubated for indicated times in 20 mM Tris HCl (pH 7.4) at 25°C. Aliquots were removed at indicated time points, centrifuged at 20,000 g for 20 min and added to the cross-linking solution. Samples contained a final concentration of 20 µM peptide, 70 µM Tris(bipyridyl)Ru(II) and 1.4 mM ammonium persulfate. Samples were illuminated with a 150 W incandescent bulb for 5 s, unless otherwise noted. The reaction was quenched by the addition of β-mercaptoethanol. The products were separated by SDS polyacrylamide gel electrophoresis using a 10–20% Tris-tricine gradient gel. Oligomer bands were visualized by silver staining (SilverXpress, Invitrogen). Quantitative analysis was carried out using GelAnalyzer software version 2010a. The relative intensity of each band was calculated by first correcting the baseline, then integrating the area under each peak.

The conditions of data set [4]: ref Wang et al., 2014b; cited from earlier work. From the text:
(§2) IAPP is expressed by all mammals examined to date; the amino acid sequences are ~80% conserved between species, however not all IAPP sequences are toxic or form amyloid in vivo (Figure 5—figure supplement 1) ([Betsholtz et al., 1989]; [Cao et al., 2013b]; [Westermark et al., 1990]).

The test system of data set [5] is rat INS-1 β-cells. As to conditions: ref Wang et al., 2014b; cited from earlier work.
Source text: as §2

Data set [6] in a line: Solubility assay by ultracentrifugation. To be noted: 20,000 g for 20 min; UV absorbance at 215 nm. It is filed as physicochemical. The protocol: Samples of toxic lag phase intermediates or amyloid fibrils were ultracentrifuged for 20 min (20,000 g) and the protein in the soluble fraction (the supernatant) was measured by UV absorbance (215 nm) before and after ultracentrifugation using a DU 730 Life Science UV/Vis spectrophotometer (Beckman Coulter).

Setting [7] is: aliquots from peptide in 20 mM Tris HCl pH 7.4, 25°C, 14 μM (h-IAPP) or 28 μM (3xL-IAPP) final, 5 h on cells, toxicity defined as <80% viability.
Setting [8] is: 1:1 addition to h-IAPP (40 µM each).

Consider “3xL-IAPP: triple mutant of h-IAPP that lacks aromatic residues (KCNTATCATQRLANLLVHSSNNLGAILSSTNVGSNTL; ends and bridges not checked; cysteine pairing not given here; UniProt P10997 34-70, looked up, variant F15L F23L Y37L)”, for which, in data set [1] (40 μM peptide solution (28 μM final on cells), Alamar Blue, 5 h on INS-1 β-cells, relative to buffer treated cells, mean, three replicate experiments), the “β-cell viability at time point of maximum toxicity” value was determined as 67%. For the same substance, in data set [1] (setting [7]), the “Toxicity of amyloid fibrils (saturation phase) to β-cells” value is reported as “not toxic” and the “Toxicity of lag phase intermediates to β-cells” value is listed as “clearly still toxic”. The Amyloid formation entry in data set [2] is recorded as “form amyloid more slowly than the human peptide”.
For “I26P-IAPP: I26P point mutant of h-IAPP; inhibitor of h-IAPP amyloid formation (KCNTATCATQRLANFLVHSSNNFGAPLSSTNVGSNTY-NH2; disulfide 2-7; ends not checked; UniProt P10997 34-70, looked up, variant I26P)”, in data set [1] (Alamar Blue, 5 h on cells), the “Toxicity to β-cells over the time course of aggregation” value is recorded as “not toxic at any time point”. The “Effect on duration of h-IAPP cytotoxicity” value in data set [1] (1:1 addition to h-IAPP, 80 µM total peptide, 56 µM final on cells, time-resolved Alamar Blue) is on record as “increases the duration of toxicity proportionally”. The “Distribution of oligomers in solution” value in data set [3] is given as “low order oligomers”. Besides, in data set [2] (setting [8]), the “Effect on T50 of h-IAPP amyloid formation (time to 50% of total thioflavin-T signal change)” value is given as “increased by a factor of two” and the “Effect on length of h-IAPP lag phase (time to 10% of total thioflavin-T signal change)” value was “increased by a factor of two”. The Amyloid formation entry in data set [2] was “non-amyloidogenic”.
As for “TM-IAPP: H18R, G24P, I26P triple mutant of h-IAPP (KCNTATCATQRLANFLVRSSNNFPAPLSSTNVGSNTY-NH2; disulfide 2-7; ends not checked; UniProt P10997 34-70, looked up, variant H18R G24P I26P)”, the “Distribution of oligomers in solution” value in data set [3] was “oligomerizes”. The Amyloid formation result in data set [4] is given as “non-amyloidogenic”. In addition, the Toxicity entry in data set [5] was “non-toxic”.
As for human islet amyloid polypeptide, the upper limit of β-sheet content is less than 15%.
Turning to “r-IAPP: non-toxic, non-amyloidogenic rat IAPP, negative control [reference compound]”, the “Toxicity to β-cells over the time course of aggregation” value in data set [1] (Alamar Blue, 5 h on cells) was “not toxic at any time point”. Moreover, the “Toxicity to β-cells, dose-response” value in data set [1] (28, 56 and 84 µM peptide prepared directly in cell culture medium, 24, 48 or 96 h on cells, Alamar Blue) is “No detectable toxicity”. For the same substance, the “Toxicity over extended time course” value in data set [1] (28 day time course, data not shown) is on record as “not toxic over a 28 day time course”. Moreover, the “Distribution of oligomers in solution” value in data set [3] was “monomers to hexamers”. Besides, the “Solubility under ultracentrifugation conditions (control)” value in data set [6] is listed as “soluble”. In addition, in data set [2], the Amyloid formation entry was “does not form amyloid fibrils”.
